The nature of the data set: self-splicing fitness, log relative to wild type (ln ratio); higher = more splicing; Tetrahymena group I intron in knt gene, E. coli kanamycin selection, DiMSum; sequences stand for … in CUCUCU…GGAGGGAAAAGUUAUCAGGCAUGCACCUGGUAGCUAGUCUUUAAACCAAUAGAUUGCAUCGGUUUAAAAGGCAAGACCGUCAAAUUGCGGGAAAGGGGUCAACAGCCGUUCAGUACCAAGUCUCAGGGGAAACUUUGAGAUGGCCUUGCAAAGGGUAUGGUAAUAAGCUGACGGACAUGGUCCUAACCACGCAGCCAAGUCCUAAGUCAACAGAUCUUCUGUUGAUAUGGAUGCAGUUCACAGACUAAAUGUCGGUCGGGGAAGAUGUAUUCUUCUCAUAAGAUAUAGUCGGACCUCUCCUUAAUGGGAGCUAGCGGAUGAAGUGAUGCAACACUGGAGCCGCUGGGAACUAAUUUGUAUGCGAAAGUAUAUUGAUUAGUUUUGGAGUACUCGUGGUCG
An outline of the steps: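 Library with all eight P1ex-region intron nucleotides randomised, intron inside the knt kanamycin-resistance gene on pET-22b(+), in E. coli BL21(DE3). Cells grew overnight at 37°C or 30°C on LB agar with or without 25 μg/mL kanamycin (plus 100 μg/mL carbenicillin, 50 μM IPTG, 0.2% rhamnose), in six replicate transformations. Pooled colonies were amplicon-sequenced on Illumina HiSeq 2500. DiMSum fitness is the error-weighted combination of wild-type-normalised replicate fold changes, kanamycin versus none.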

± gives the uncertainty stated by the source.

With UAUCAGCAAUAUUACGGGAA, the “self-splicing fitness (ln)” value (30 °C) was -1.65 ± 0.1 and the “self-splicing fitness (ln)” value (37 °C) was -0.124 ± 0.11. Taken in the same sequence, the figures for AAUCAGCAAUAUUACGCUGG were -2.63 ± 0.099 and -2.87 ± 0.087. The corresponding values for CCUCAGCAAUAUUACGGUGU are -3.9 ± 0.27 and -1.76 ± 0.16. As for CAAUAGCAAUAUUACGGGAC, the “self-splicing fitness (ln)” value runs as follows: (30 °C) -2.83 ± 0.34; (37 °C) -2.63 ± 0.27. The corresponding values for ACUCAGCAAUAUUACGCCGC are -2.78 ± 0.28 and -1.78 ± 0.43. The corresponding values for GCAUAGCAAUAUUACGGGCA are -1.67 ± 0.14 and -0.974 ± 0.12. The corresponding values for GUCCAGCAAUAUUACGUAGU are -0.119 ± 0.062 and 0.398 ± 0.08. As for CUAUAGCAAUAUUACGCUAC, the “self-splicing fitness (ln)” value was -3.66 ± 0.17 (30 °C) and -2.98 ± 0.2 (37 °C).

Take GCCCAGCAAUAUUACGCAAU: the “self-splicing fitness (ln)” value is, setting by setting: (30 °C) -1.23 ± 0.059; (37 °C) -0.336 ± 0.069. The corresponding values for GGAUAGCAAUAUUACGGAUG are -3.16 ± 0.33 and -0.578 ± 0.18. For GCAUAGCAAUAUUACGUCAG, the “self-splicing fitness (ln)” value (30 °C) is -2.47 ± 0.16 and the “self-splicing fitness (ln)” value (37 °C) is -1.8 ± 0.23. In the case of UCAAAGCAAUAUUACGGAGU, the “self-splicing fitness (ln)” value is, setting by setting: (30 °C) -3.11 ± 0.13; (37 °C) -1.69 ± 0.14.

ACCUAGCAAUAUUACGCGCA: the “self-splicing fitness (ln)” value (30 °C) was -0.569 ± 0.08 and the “self-splicing fitness (ln)” value (37 °C) is -0.709 ± 0.087. The corresponding values for AUGUAGCAAUAUUACGACCG are -0.834 ± 0.12 and -0.5 ± 0.17.

On to UCCAAGCAAUAUUACGCGAC, for which the “self-splicing fitness (ln)” value (30 °C) was -2.44 ± 0.23.

Turning to GAUUAGCAAUAUUACGCCUA, the “self-splicing fitness (ln)” value was -0.405 ± 0.092 (30 °C) and 0.169 ± 0.095 (37 °C). For the sequence UUCCAGCAAUAUUACGCAAU, the “self-splicing fitness (ln)” value by setting is: (30 °C) -2.02 ± 0.17; (37 °C) -1.31 ± 0.14. Taken in the same sequence, the figures for GACCAGCAAUAUUACGAGAU were -2.62 ± 0.12 and -1.05 ± 0.084. Taken in the same sequence, the figures for AUAUAGCAAUAUUACGCUCG were -0.992 ± 0.12 and 0.0571 ± 0.18. Taken in the same sequence, the figures for ACCUAGCAAUAUUACGGUCG were -3.53 ± 0.17 and -2.11 ± 0.14. For the sequence GGUGAGCAAUAUUACGACAA, the “self-splicing fitness (ln)” value is, setting by setting: (30 °C) -1.2 ± 0.26; (37 °C) -0.76 ± 0.3. The corresponding values for CGGAAGCAAUAUUACGCUAA are -2.74 ± 0.17 and -3.01 ± 0.29.

Regarding UCACAGCAAUAUUACGGAGG, the “self-splicing fitness (ln)” value was -3.27 ± 0.15 (30 °C) and -2.29 ± 0.19 (37 °C).

In the case of UUGAAGCAAUAUUACGAAUU, the “self-splicing fitness (ln)” value by setting is: (30 °C) -2.73 ± 0.33; (37 °C) -1.3 ± 0.31.

For the sequence CGUCAGCAAUAUUACGAGAA, the “self-splicing fitness (ln)” value was -2.97 ± 0.38 (30 °C) and -2.09 ± 0.29 (37 °C). The corresponding values for GGGCAGCAAUAUUACGCUAA are -0.45 ± 0.087 and 0.361 ± 0.14. Taken in the same sequence, the figures for GCCCAGCAAUAUUACGCACC were -0.112 ± 0.075 and 0.19 ± 0.097. Taken in the same sequence, the figures for UGUGAGCAAUAUUACGAUGG were -2.74 ± 0.2 and -2.27 ± 0.19. Consider GCCUAGCAAUAUUACGGGCA, for which the “self-splicing fitness (ln)” value (30 °C) was -1.3 ± 0.12 and the “self-splicing fitness (ln)” value (37 °C) is -1.61 ± 0.12.

AGGAAGCAAUAUUACGCUAU: the “self-splicing fitness (ln)” value reads like this: (30 °C) -3.03 ± 0.21; (37 °C) -2.35 ± 0.2. In the case of GGUCAGCAAUAUUACGAACG, the “self-splicing fitness (ln)” value was determined as 0.0341 ± 0.039 (30 °C) and 0.332 ± 0.057 (37 °C).

On to UGAAAGCAAUAUUACGACCC, for which the “self-splicing fitness (ln)” value (30 °C) was -1.44 ± 0.31. Take GAUCAGCAAUAUUACGUCAC: the “self-splicing fitness (ln)” value runs as follows: (30 °C) -3.88 ± 0.2; (37 °C) -2.13 ± 0.15. Taken in the same sequence, the figures for AUGCAGCAAUAUUACGGCCA were -0.753 ± 0.14 and 0.267 ± 0.14.

Take CUUAAGCAAUAUUACGGACG: the “self-splicing fitness (ln)” value reads like this: (30 °C) -0.229 ± 0.085; (37 °C) 0.228 ± 0.12.

As to AACGAGCAAUAUUACGGUUG, the “self-splicing fitness (ln)” value by setting is: (30 °C) -3.98 ± 0.15; (37 °C) -2.37 ± 0.13. Turning to UAGGAGCAAUAUUACGCGAC, the “self-splicing fitness (ln)” value (37 °C) is -1.74 ± 0.38. Turning to UAGCAGCAAUAUUACGACCU, the “self-splicing fitness (ln)” value (30 °C) was -0.287 ± 0.13 and the “self-splicing fitness (ln)” value (37 °C) was found to be 0.328 ± 0.13. For UCUGAGCAAUAUUACGCAAA, the “self-splicing fitness (ln)” value runs as follows: (30 °C) -2.8 ± 0.33; (37 °C) -1.27 ± 0.19.

As to AUGAAGCAAUAUUACGGGAU, the “self-splicing fitness (ln)” value runs as follows: (30 °C) -0.638 ± 0.056; (37 °C) -0.499 ± 0.093. Taken in the same sequence, the figures for GUCGAGCAAUAUUACGUCAG were -3.08 ± 0.16 and -2.98 ± 0.19.

Turning to UGGUAGCAAUAUUACGCGUA, the “self-splicing fitness (ln)” value reads like this: (30 °C) -1.26 ± 0.24; (37 °C) -1.56 ± 0.27. Taken in the same sequence, the figures for AGGUAGCAAUAUUACGACCC were -2.38 ± 0.047 and -1.69 ± 0.064. Taken in the same sequence, the figures for ACAGAGCAAUAUUACGAGCA were -3.84 ± 0.28 and -2.83 ± 0.31. Turning to AGUUAGCAAUAUUACGGGCG, the “self-splicing fitness (ln)” value (30 °C) is -0.303 ± 0.16 and the “self-splicing fitness (ln)” value (37 °C) was -0.0474 ± 0.17. As for ACGCAGCAAUAUUACGACUA, the “self-splicing fitness (ln)” value reads like this: (30 °C) -1.15 ± 0.072; (37 °C) -0.183 ± 0.064.

On to ACACAGCAAUAUUACGGUCG, for which the “self-splicing fitness (ln)” value reads like this: (30 °C) -1.09 ± 0.051; (37 °C) -0.473 ± 0.076. The corresponding values for UUCGAGCAAUAUUACGGUAU are -3.95 ± 0.22 and -2.22 ± 0.23.

For UACUAGCAAUAUUACGGGAG, the “self-splicing fitness (ln)” value was -2.3 ± 0.11 (30 °C) and -1.19 ± 0.1 (37 °C). The corresponding values for GGAUAGCAAUAUUACGCCGA are -0.933 ± 0.13 and -0.0698 ± 0.14. Consider CAGUAGCAAUAUUACGUAUG, for which the “self-splicing fitness (ln)” value is -2.06 ± 0.11 (30 °C) and -1.93 ± 0.16 (37 °C). Taken in the same sequence, the figures for GAAGAGCAAUAUUACGCUCU were -3.53 ± 0.23 and -2.74 ± 0.24. The corresponding values for AGACAGCAAUAUUACGUAGA are -2.6 ± 0.081 and -2.5 ± 0.11. Taken in the same sequence, the figures for GAAGAGCAAUAUUACGGCAU were -1.96 ± 0.12 and -1.99 ± 0.17. As for AAUAAGCAAUAUUACGGCAA, the “self-splicing fitness (ln)” value (30 °C) is -0.158 ± 0.09 and the “self-splicing fitness (ln)” value (37 °C) is -0.3 ± 0.12. The corresponding values for AUGUAGCAAUAUUACGGCGA are -0.117 ± 0.088 and -0.00452 ± 0.11. Taken in the same sequence, the figures for UUCCAGCAAUAUUACGAGCG were -1.6 ± 0.096 and -1.26 ± 0.1.

For GUGGAGCAAUAUUACGGGGG, the “self-splicing fitness (ln)” value (30 °C) is -3.36 ± 0.44.

CGUCAGCAAUAUUACGUGGU: the “self-splicing fitness (ln)” value (30 °C) was -3.59 ± 0.12 and the “self-splicing fitness (ln)” value (37 °C) was -2.5 ± 0.13. Taken in the same sequence, the figures for GCGAAGCAAUAUUACGGCCA were -0.992 ± 0.092 and -0.821 ± 0.1. Taken in the same sequence, the figures for AACAAGCAAUAUUACGUGUG were -1.69 ± 0.043 and -0.657 ± 0.05. GCCGAGCAAUAUUACGUUAC: the “self-splicing fitness (ln)” value is -3.09 ± 0.21 (30 °C) and -2.3 ± 0.19 (37 °C).

Take UGGUAGCAAUAUUACGACGA: the “self-splicing fitness (ln)” value by setting is: (30 °C) -0.462 ± 0.14; (37 °C) 1.24 ± 0.19. Taken in the same sequence, the figures for GAAAAGCAAUAUUACGCCGG were -1.34 ± 0.18 and -1.2 ± 0.17. The corresponding values for ACCGAGCAAUAUUACGCAGU are -3.67 ± 0.16 and -2.48 ± 0.16.

Take GAGGAGCAAUAUUACGUGAC: the “self-splicing fitness (ln)” value was -1.97 ± 0.3 (30 °C) and -0.137 ± 0.26 (37 °C).

In the case of GUCCAGCAAUAUUACGUCCU, the “self-splicing fitness (ln)” value is -1.77 ± 0.13 (30 °C) and -0.83 ± 0.12 (37 °C). The corresponding values for AAGAAGCAAUAUUACGCCCU are 0.319 ± 0.11 and 0.0852 ± 0.12. Taken in the same sequence, the figures for UGCUAGCAAUAUUACGAUGU were -4.19 ± 0.46 and -2.59 ± 0.38. The corresponding values for CCCCAGCAAUAUUACGAAUU are -3.01 ± 0.23 and -1.59 ± 0.36.

Consider CGAUAGCAAUAUUACGUCGU, for which the “self-splicing fitness (ln)” value was -4.24 ± 0.2 (30 °C) and -3.05 ± 0.21 (37 °C). The corresponding values for GUCUAGCAAUAUUACGCGUU are -0.17 ± 0.063 and -0.000183 ± 0.069.

Regarding AGAAAGCAAUAUUACGCUCU, the “self-splicing fitness (ln)” value is -3.2 ± 0.37 (30 °C) and -2.58 ± 0.49 (37 °C). Taken in the same sequence, the figures for GGCUAGCAAUAUUACGUUUC were -0.818 ± 0.11 and -0.182 ± 0.12. Taken in the same sequence, the figures for GGUGAGCAAUAUUACGGGCG were -1.39 ± 0.14 and -0.473 ± 0.14.

As for CCAAAGCAAUAUUACGAGAA, the “self-splicing fitness (ln)” value (30 °C) was -3.52 ± 0.44 and the “self-splicing fitness (ln)” value (37 °C) is -3 ± 0.35.

Source of the values: the supplement of paper PMC7877785.
